Patent publication US20180073089

Target: recombinant substrate protein VAMP-2 (2-94)-GFP (UniProt P63027)
Sequence (P63027 2-94): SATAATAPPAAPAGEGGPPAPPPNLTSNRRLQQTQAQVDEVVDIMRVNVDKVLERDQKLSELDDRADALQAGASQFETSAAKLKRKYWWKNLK

## native BoNT/F (nBoNT/F) control
  % of cleaved product: 65% versus 46%
  specific activity: 26 nmol/h/pmol vs 18 nmol/h/pmol
